Results taken from patent US20120277164A1 (IMPERIAL INNOVATIONS, published 2012).
Read-outs that look alike come from different tables or passages of the source. Values belong to the molecule of their own block, whether it stands above or below them. Square brackets hold non-standard residues; d marks the D form. Ends that are not written are not given here. * marks the point of attachment. Fmoc = O=C(OCC1c2ccccc2-c2ccccc21)*; Cha = N[C@@H](CC1CCCCC1)C(=O)O; ClZ = O=C(OCc1ccccc1Cl)*; Cbz = O=C(OCc1ccccc1)*; Bz = O=C(c1ccccc1)*; Myr = myristyl

Tests used:
[1] = biological target: T1, Gadd45β/MKK7 complex (biotin-hGadd45β with coated GST-MKK7, ELISA format) (human) (UniProt O75293); experiment: competition ELISA; coated GST-MKK7 42 nM, biotin-hGadd45β 21 nM
T1 sequence (biotinylated (sites not stated), looked up) 1: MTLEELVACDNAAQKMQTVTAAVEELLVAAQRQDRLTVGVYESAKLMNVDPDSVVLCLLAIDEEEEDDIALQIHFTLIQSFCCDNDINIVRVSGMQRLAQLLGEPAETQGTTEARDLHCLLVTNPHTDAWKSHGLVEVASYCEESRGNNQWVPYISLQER
T1 sequence (biotinylated (sites not stated), looked up) 2: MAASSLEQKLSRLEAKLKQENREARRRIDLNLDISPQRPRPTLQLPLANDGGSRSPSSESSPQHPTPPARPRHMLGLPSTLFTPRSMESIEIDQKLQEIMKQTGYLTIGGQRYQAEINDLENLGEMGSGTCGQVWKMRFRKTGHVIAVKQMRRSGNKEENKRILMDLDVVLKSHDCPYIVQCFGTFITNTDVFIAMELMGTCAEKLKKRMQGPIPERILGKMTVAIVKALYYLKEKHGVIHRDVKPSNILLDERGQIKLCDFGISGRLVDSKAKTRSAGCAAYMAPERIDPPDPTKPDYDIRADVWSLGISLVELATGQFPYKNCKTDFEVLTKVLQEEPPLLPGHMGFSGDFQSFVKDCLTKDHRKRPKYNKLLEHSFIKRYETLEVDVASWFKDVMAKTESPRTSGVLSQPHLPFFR

[2] = biological target: T2, Gadd45β/MKK7 complex (biotin-hGadd45β with coated GST-MKK7, ELISA format) (human, UniProt O75293 1-160; O14733 1-419, biotinylated (sites not given)); experiment: competition ELISA; coated GST-MKK7, biotin-hGadd45β; single dose
T2 construct: not shown: glutathione S-transferase (GST) fusion partner
T2 sequence (looked up) 1: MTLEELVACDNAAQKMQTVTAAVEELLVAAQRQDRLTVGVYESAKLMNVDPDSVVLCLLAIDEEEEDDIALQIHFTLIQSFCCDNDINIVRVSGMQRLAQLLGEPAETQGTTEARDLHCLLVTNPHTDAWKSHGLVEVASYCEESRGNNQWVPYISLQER
T2 sequence (looked up) 2: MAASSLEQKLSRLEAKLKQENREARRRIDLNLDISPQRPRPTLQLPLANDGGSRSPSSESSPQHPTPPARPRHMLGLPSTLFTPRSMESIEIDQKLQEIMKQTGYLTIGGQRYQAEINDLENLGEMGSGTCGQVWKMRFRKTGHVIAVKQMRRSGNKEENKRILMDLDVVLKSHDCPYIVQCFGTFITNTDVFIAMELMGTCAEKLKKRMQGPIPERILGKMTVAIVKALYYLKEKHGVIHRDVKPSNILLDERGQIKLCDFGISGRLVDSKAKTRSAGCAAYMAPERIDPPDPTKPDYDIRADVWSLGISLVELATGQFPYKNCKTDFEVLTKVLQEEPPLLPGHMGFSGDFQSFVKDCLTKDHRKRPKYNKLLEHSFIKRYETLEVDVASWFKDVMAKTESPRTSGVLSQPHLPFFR

[3] = biological target: T2, Gadd45β/MKK7 complex (biotin-hGadd45β …); experiment: as above; remark: listed apart in the source

Molecule: H-YRY-NH2 (peptide)
- IC50 [1]: 0.75 nM

Molecule: Ac-Tyr-Asn-Phe-NH2 (peptide)
- IC50 [1]: 1.9 nM

Molecule: Z-Tyr-Glu-Phe-NH2 (mDTP2) (peptide)
- IC50 [1]: 0.158 nM

Molecule: Cbz-Tyr-Asp-Phe-NH2
- IC50 [1]: 0.162 nM

Molecule: Ac-YPF-NH2 (peptide)
- IC50 [1]: 0.645 nM

Molecule: Ac-Tyr-Arg-[Cha]
- IC50 [1]: > 5 nM

Molecule: Cbz-Tyr-Arg-Phe-NH2
- IC50 [1]: 0.1 nM

Molecule: Ac-YHF-NH2 (peptide)
- IC50 [1]: 0.69 nM

Molecule: Ac-Tyr-Leu-Phe-NH2 (peptide)
- IC50 [1]: 1.8 nM

Molecule: Fmoc-YDHF-NH2 [Fmoc-YDHF-NH2]
- % Inhibition of Gadd45β-MKK7 binding [2]: 58%

Molecule: Bz-YDHF-NH2 [Benzoic acid-YDHF-NH2]
- % Inhibition of Gadd45β-MKK7 binding [2]: 0%

Molecule: Cbz-YD(OMe)HF-NH2 [Z-YD(OMe)HF-NH2]
- % Inhibition of Gadd45β-MKK7 binding [2]: 84%

Molecule: Ac-WDHW-NH2 [Ac-WDHW-NH2]
- % Inhibition of Gadd45β-MKK7 binding [3]: 50%

Molecule: Ac-WERW-NH2 [Ac-WERW-NH2]
- % Inhibition of Gadd45β-MKK7 binding [3]: 69%

Molecule: Ac-YERW-NH2 [Ac-YERW-NH2]
- % Inhibition of Gadd45β-MKK7 binding [3]: 59%

Molecule: Ac-YPRF-NH2 [Ac-YPRF-NH2]
- % Inhibition of Gadd45β-MKK7 binding [2]: 13%

Molecule: {3‑OH‑4MeO‑benzoic acid}-YERF-NH2 [3-OH-4MeO-Benzoid acid-YERF-NH2]
- % Inhibition of Gadd45β-MKK7 binding [2]: 86%

Molecule: Ac-PERF-NH2 [Ac-PERF-NH2]
- % Inhibition of Gadd45β-MKK7 binding [2]: 24%

Molecule: Ac-YEPF-NH2 [Ac-YEPF-NH2]
- % Inhibition of Gadd45β-MKK7 binding [2]: 13%

Molecule: Cbz-YERF-NH2 (also called Z-LTP2) [Z-YERF-NH2]
- % Inhibition of Gadd45β-MKK7 binding [2]: 78%

Molecule: Ac-YEKW-NH2 [Ac-YEKW-NH2]
- % Inhibition of Gadd45β-MKK7 binding [3]: 27%

Molecule: Ac-YERA-NH2 [Ac-YERA-NH2]
- % Inhibition of Gadd45β-MKK7 binding [2]: 28%

Molecule: Ac-YDHW-NH2 [Ac-YDHW-NH2]
- % Inhibition of Gadd45β-MKK7 binding [3]: 58%

Molecule: ClZ-YERF-NH2 [2CI-Z-YERF-NH2]
- % Inhibition of Gadd45β-MKK7 binding [2]: 38%

Molecule: Ac-WDHF-NH2 [Ac-WDHF-NH2]
- % Inhibition of Gadd45β-MKK7 binding [3]: 28%

Molecule: Ac-YDRW-NH2 [Ac-YDRW-NH2]
- % Inhibition of Gadd45β-MKK7 binding [3]: 43%

Molecule: Ac-WEHW-NH2 [Ac-WEHW-NH2]
- % Inhibition of Gadd45β-MKK7 binding [3]: 75%

Molecule: Ac-WERF-NH2 [Ac-WERF-NH2]
- % Inhibition of Gadd45β-MKK7 binding [3]: 29%

Molecule: Ac-YDRF-NH2 [Ac-YDRF-NH2]
- % Inhibition of Gadd45β-MKK7 binding [3]: 45%
- % Inhibition of Gadd45β-MKK7 binding [2]: 19%

Molecule: Ac-WEKF-NH2 [Ac-WEKF-NH2]
- % Inhibition of Gadd45β-MKK7 binding [3]: 65%

Molecule: Ac-YEKF-NH2 [Ac-YEKF-NH2]
- % Inhibition of Gadd45β-MKK7 binding [3]: 64%

Molecule: Myr-YDHF-NH2 [Myr-YDHF-NH2]
- % Inhibition of Gadd45β-MKK7 binding [2]: 26%

Molecule: Ac-[dY][dL][dR][dF]-NH2 (also: D/L configuration not given here) [Ac-Tyr-Leu-Arg-Phe-NH2]
- IC50 [1]: 5 nM

Molecule: Cbz-[dY][dY][dD][dH][dQ]-NH2 [Z-Tyr-Tyr-Asp-His Gln-NH2]
- IC50 [1]: > 10 nM

Molecule: Cbz-[dY][dY][dE][dR][dF]-NH2 [Z-Tyr-Tyr-Glu-Arg-Phe-NH2]
- IC50 [1]: > 5 nM

Molecule: Ac-[dY][dN][dR][dF]-NH2 (also: D/L configuration not given here) [Ac-Tyr-Asn-Arg-Phe-NH2]
- IC50 [1]: 10 nM

Molecule: Ac-[dY][dM][dR][dF]-NH2 (also: D/L configuration not given here) [Ac-Tyr-Met-Arg-Phe-NH2]
- IC50 [1]: > 10 nM

Further lines, results first:

- IC50 [1]: 0.758 nM
Molecule: Ac-YRY-NH2 (peptide)

- IC50 [1]: > 10 nM
Molecule: Ac-Tyr-Gln-Phe-NH2 (peptide)

- IC50 [1]: > 5 nM
Molecule: Ac-[Cha]-Arg-Phe-NH2

- IC50 [1]: 0.645 nM
Molecule: H-YHF-NH2 (peptide)

- IC50 [1]: > 10 nM
Molecule: AC-Tyr-Met-Phe-NH2 (peptide)

- IC50 [1]: > 5 nM
Molecule: Ac-[dY][dY][dR][dF]-NH2 (also: D/L configuration not given here) [Ac-Tyr-Tyr-Arg-Phe-NH2]

- IC50 [1]: > 10 nM
Molecule: Cbz-[dY][dD][dH][dQ]-NH2 [Z-Tyr-Asp-His-Gln-NH2]

- % Inhibition of Gadd45β-MKK7 binding [2]: 81%
Molecule: {3‑hydroxy‑4‑methoxybenzoyl}-YDHF-NH2 [3-OH-4MeO-Benzoid acid-YDHF-NH2]

- % Inhibition of Gadd45β-MKK7 binding [2]: 40%
Molecule: ClZ-YDHQ-NH2 [2CI-Z-YDHQ-NH2]

- % Inhibition of Gadd45β-MKK7 binding [2]: 0%
Molecule: Ac-YERP-NH2 [Ac-YERP-NH2]

- % Inhibition of Gadd45β-MKK7 binding [3]: 65%
Molecule: Ac-WEKW-NH2 [Ac-WEKW-NH2]

- % Inhibition of Gadd45β-MKK7 binding [3]: 46%
Molecule: Ac-WDRF-NH2 [Ac-WDRF-NH2]

- % Inhibition of Gadd45β-MKK7 binding [3]: 93%
Molecule: Ac-WDRW-NH2 [Ac-WDRW-NH2]

- % Inhibition of Gadd45β-MKK7 binding [3]: 64%
Molecule: Ac-YEHW-NH2 [Ac-YEHW-NH2]

- % Inhibition of Gadd45β-MKK7 binding [2]: 60%
Molecule: Fmoc-YERF-NH2 [Fmoc-YERF-NH2]

- % Inhibition of Gadd45β-MKK7 binding [3]: 23%
Molecule: Ac-YDKW-NH2 [Ac-YDKW-NH2]

- % Inhibition of Gadd45β-MKK7 binding [3]: 35%
Molecule: Ac-YDKF-NH2 [Ac-YDKF-NH2]

- % Inhibition of Gadd45β-MKK7 binding [3]: 69%
Molecule: Ac-WDKW-NH2 [Ac-WDKW-NH2]

- % Inhibition of Gadd45β-MKK7 binding [2]: 24%
Molecule: Bz-YERF-NH2 [Benzoic acid-YERF-NH2]

- % Inhibition of Gadd45β-MKK7 binding [2]: 28%
Molecule: Myr-YDHQ-NH2 [Myr-YDHQ-NH2]

- % Inhibition of Gadd45β-MKK7 binding [2]: 13%
Molecule: Ac-YEAF-NH2 [Ac-YEAF-NH2]

- % Inhibition of Gadd45β-MKK7 binding [2]: 37%
Molecule: Myr-YERF-NH2 [Myr-YERF-NH2]

- % Inhibition of Gadd45β-MKK7 binding [2]: 17%
Molecule: Ac-YARF-NH2 [Ac-YARF-NH2]

- % Inhibition of Gadd45β-MKK7 binding [3]: 36%
Molecule: Ac-WEHF-NH2 [Ac-WEHF-NH2]

- % Inhibition of Gadd45β-MKK7 binding [3]: 26%
Molecule: Ac-WDKF-NH2 [Ac-WDKF-NH2]

- % Inhibition of Gadd45β-MKK7 binding [2]: 13%
Molecule: Cbz-YDHQ-NH2 [Z-YDHQ-NH2]

- % Inhibition of Gadd45β-MKK7 binding [2]: 84%
Molecule: Cbz-YDHF-NH2 (also called Z-LTP1) [Z-YDHF-NH2]

- IC50 [1]: 5 nM
Molecule: Ac-[dY][dQ][dR][dF]-NH2 (also: D/L configuration not given here) [Ac-Tyr-Gln-Arg-Phe-NH2]

- % Inhibition of Gadd45β-MKK7 binding [2]: 38%
Molecule: ClZ-YDHF-NH2 [2CI-Z-YDHF-NH2]
